Experimental data published in patent publication US8741840B2, “BMP-7 for use in treating neointimal hyperplasia” (Washington University, priority 2008, dated 2014).
“And” between values parts separate entries of the source, which are not always exact repeats. Identical values can stand only once.

Experiments:
[1] = tested on: LDLR−/− mice with CKD on high fat diet; experiment: Chemical quantitation of aortic calcium in high fat fed LDLR-/- mice with CKD (treatment study, weeks 22-28); type: in vivo, mouse; conditions: therapy weeks 22-28 post natal; BMP-7 10 μg/kg IP weekly; CaCO3 or LaCO3 3% in diet (FIG. 1A, FIG. 2)
Text: At 10 weeks, animals were either continued on this chow diet or initiated on a high cholesterol (0.15%) diet containing 42% calories as fat [Harlan Teklad, Madison Wis., Product No. TD88137].
Induction of CKD: A two-step procedure was utilized to create uremia as previously described. (Davies 2003; Lund, 2004)^19;21 Saphenous vein blood samples were taken 1 week following the second surgery to assess baseline post-surgical renal function. Animals were sacrificed under anesthesia 28 weeks post natal. At the time of sacrifice, blood was taken by intracardiac stab, and the heart and aorta dissected en bloc. The BMP-7 treated group received intraperitoneal injection of BMP-7 10 μg/kg dry weight once weekly in 100 μl vehicle [mannitol (5% w/v), NaAcetate buffer (20 mM, pH 4.0-4.5), sterile water].
Group 1 were LDLR−/− mice on the high fat diet sacrificed at 22 weeks. Group 2 were LDLR−/− mice with CKD fed the high fat diet and treated weekly from 22 to 28 weeks with vehicle IP. […]
Chemical Calcification Quantitation: similar to our previous experimental plans (Davies 2003; Davies 2005).^19;20 Aorta and hearts were dissected at sacrifice, and all extraneous tissue removed by blunt dissection under a dissecting microscope. […]
Mice were treated with 10 mcg/kg BMP-7 injected intraperitoneally once weekly. […] The data are expressed as group mean±SEM, n=4-7.
The data are expressed as group mean±SEM, n=4-5.

[2] = Blood tests: serum biochemical parameters in the various groups of animals; type: in vivo, mouse
Method: Animals were sacrificed under anesthesia 28 weeks post natal. At the time of sacrifice, blood was taken by intracardiac stab, and the heart and aorta dissected en bloc. The BMP-7 treated group received intraperitoneal injection of BMP-7 10 μg/kg dry weight once weekly in 100 μl vehicle [mannitol (5% w/v), NaAcetate buffer (20 mM, pH 4.0-4.5), sterile water].
Animals were allocated to one of seven CKD high fat fed groups after the second surgery: Other control Groups included LDLR−/− sham operated mice on chow diet, and LDLR−/− mice with CKD on chow diet. C57B16 WT mice fed chow served as the normal benchmark source. […] Group 1 were LDLR−/− mice on the high fat diet sacrificed at 22 weeks. Group 2 were LDLR−/− mice with CKD fed the high fat diet and treated weekly from 22 to 28 weeks with vehicle IP. […] Group 3 was the first treatment group. These were LDLR−/− mice with CKD on high fat diet that received BMP-7 treatment (10 μg/kg IP weekly). Group 4 were LDLR−/− mice with CKD on high fat diet treated with sevelamer CO3 1%. Group 5 were LDLR−/− mice with CKD on high fat diet treated with sevelamer CO3 3%. […] Once the mice were randomized into groups, they were allowed to develop calcification from weeks 14 through weeks 22 post natal. Therapy was initiated at 23 weeks postnatal and continued until week 28 postnatal at which time the mice were examined.
Blood tests: Serum was analyzed on the day of blood draw for blood urea nitrogen [BUN], cholesterol, calcium and phosphate by standard laboratory methods. Before initiation of therapy, blood was obtained through saphenous vein. At the time of sacrifice, blood was obtained through intracardiac stab.

[3] = tested on: LDLR−/− high fat fed mice; experiment: Histology of proximal aorta (alizarin red): calcified atherosclerotic plaques; type: in vivo, mouse
Text: Tissue Preparation: Resected specimens were flash frozen in liquid nitrogen, then divided as follows: the heart, ascending aorta and aortic arch were separated from the descending aorta, and bisected sagittally through the aortic outflow tract. The descending aorta was bisected coronally, approximately halfway along its length. In order to visualize calcification in the tissue sections, Slices (5 μm thick) were cut and stained with von Kossa and Trap staining.
Additional mice were enrolled to the study for qualitative analysis of aortas to quantitate the effects of the treatments, because aortas of the experimental animals were destroyed by the technique of quantifying the aortic calcium content. Vascular calcification was largely aortic atherosclerotic plaque associated (FIG. 3), and punctate calcifications in the tunica media were observed. Panel A: Large lipid laden plaque (between arrows) in proximal aorta of a sham-operated high fat fed LDLR−/− mouse. Thick arrows identify focal calcifications in the base of the plaque. Panel B: A large calcified plaque (between arrows) in the proximal aorta of a CKD high fat fed LDLR−/− mouse. Panel C: A large lipid laden plaque (between arrows) in the proximal aorta of a BMP-7 treated CKD high fat fed LDLR−/− mouse. The stain is alizarin red. Magnification is 400× in A-C.

[4] = tested on: human vascular smooth muscle cells (hVSMC) isolated from atherosclerotic donors; experiment: Phosphorus stimulated matrix mineralization (matrix Ca content) in hVSMC cultures; type: cell-based; design: Matrix Ca content, Effects of 10 ng/ml BMP-7: unit not given here
Method: Cell Culture: Human adult aorta were obtained from seven cadaveric organ donors rejected because of atherosclerosis by Mid-America Transplant Services (St. Louis, Mo.) and enzymatically digested to obtain Human Smooth Muscle Cells (HSMC). Medial tissue was separated from the adventia and intima and digested with collagenase type I (Worthington, Lakewood, N.J.) 2 mg/ml for 1 hr, and washed with Hank's balanced salt solution (HBSS). Further digestion followed with collagenase type II 1 mg/ml (Worthington, Lakewood, N.J.) and elastase 0.25 mg/ml (Worthington, Lakewood, N.J.) for 4 hrs. Cell suspensions were washed twice with HBSS and cultured in T-75 flasks for three weeks in a 95%/5% air/CO2 humidified environment at 37° C. The growth medium used was DMEM containing […] glucose (high glucose), 10% fetal bovine serum (FBS, Atlas, Fort Collins, Colo.), 1 mM sodium pyruvate, 100 units/ml Penicillin and […] Streptomycin (Sigma, St Louis, Mo.). Cell purity was assessed by positive immunostaining for α-smooth muscle actin and calponin and for the absence of von Willebrand factor. In all experimental protocols, cells were seeded at 1×10^5 cells/well in six-well plates. Medium was changed on the first day and every third day thereafter. In all cases, cells used were between passages two and five (Table 3).
Induction of Calcification: At the time of confluence, cells were switched to mineralization medium consisting of DMEM supplemented with 1 or 2 mM Pi. For cells exposed to BMP-7 treatment, fresh mineralization medium containing either vehicle (mannitol, acetic acid, acetate) or BMP-7 in vehicle was added at 0.1, 1.0, 10, or 100 ng/ml. The medium was changed every two or three days. […] Calcium content was quantified and normalized to cellular protein as described. (Jono 2000; Moe S. M. et al., Kidney Int 67:2295-2304, 2005)^11;52
In vitro matrix mineralization. […]

[5] = tested on: aortas of LDLR−/− high fat fed mice; experiment: Aortic expression of calcification related genes by real time RT-PCR; type: in vivo, mouse; conditions: CKD mice, BMP-7, 3% CaCO3 or 3% LaCO3 treated
Method: Real Time Quantitative RT-PCR: Following reverse transcription performed as above, real time was performed using the MX 4000 (Strategene, La Jolla, Calif.), SYBR Green from Sigma (St. Louis) and the PCR kit from Invitrogen. Each reaction was performed in triplicate at 95° C., 45 sec, and 60° C., 30 sec, and 60 sec at 72° C. for 40 cycles. This was followed by a melt cycle, which consisted of stepwise increase in temperature from 72° C. to 99° C. […] Ct numbers (threshold values) were set within the exponential phase of PCR and were used to calculate the expression levels of the genes of interest. GAPDH was used as an internal standard and used to normalize the values. A standard curve consisting of the cT versus log cDNA dilutions (corresponding to the log copy numbers) was generated by amplifying serial dilutions of cDNA corresponding to an […] amount of amplicon.
Expression of calcification related genes. To relate the mechanism of phosphorus action detected in vitro to this model of CKD induced vascular calcification and hyperphosphatemia in vivo, the inventors of the instant invention analyzed aortic expression of the osteoblastic lineage genes including osterix message levels by real time RT-PCR. […] Data are expressed as the mean of the transcript levels relative to GAPDH expression in each aorta±SEM, N=3. […] (Hoffman 1994;Ducy P. et al., Mol Cell Biol 15:1858-1869, 1995)^32;41

B1: BMP-7: bone morphogenetic protein-7 (osteogenic protein-1), mineralization-countering morphogen; provided by Johnson and Johnson (protein, listed as Homo sapiens)
chain: STGSKQRSQNRSKTPKNQEALRMANVAENSSSDQRQACKKHELYVSFRDLGWQDWIIAPEGYAAYYCEGECAFPLNSYMNATNHAIVQTLVHFINPETVPKPCCAPTQLNAISVLYFDDSSNVILKKYRNMVVRACGCH
aortic calcium (vascular calcification) versus the 22 week start point [1]: significant reduction of aortic calcification compared to the 22 week start point | serum phosphorus / hyperphosphatemia ([2]; CKD high fat fed LDLR-/- mice, treated weeks 22-28 (FIG. 1B, Table 5)): reduced to normal levels | Phosphorus ([2]; serum, LDLR-/-, fat diet, CKD, 28 weeks post natal, BMP-7 10 μg/kg IP weekly or binder 3% in diet): 6.325 ± .471 mg/dL | size of the atherosclerotic lesions ([3]; proximal aorta (FIG. 3)): did not decrease the size of the atherosclerotic lesions | plaque associated calcium deposition ([3]; proximal aorta, alizarin red stain (FIG. 3)): diminished plaque associated calcium deposition | mineralization of the ECM ([4]; BMP-7 0.1, 1 and 10 ng/ml, 14 or 21 days in high phosphorus media (FIG. 4)): decreased mineralization of the ECM | Matrix Ca content, Effects of 10 ng/ml BMP-7 ([4]; hVSMC from atherosclerotic aortas, one donor (donors 1-7, passage 2-3), 10 ng/ml BMP-7 in high phosphorus (2 mM PO4) media): 18 and 17.9 and 25.8 and 19.8 and 22.1 and 20.3 and 20.6 | CBFA1 expression in aorta ([5]; relative to GAPDH (FIG. 9B)): inhibited | Osterix expression in aorta ([5]; relative to GAPDH (FIG. 9C)): inhibited | Osteocalcin expression in aorta ([5]; relative to GAPDH (FIG. 9D)): inhibited
